These results are taken from paper PMC7276532, “C-terminal eYFP fusion impairs Escherichia coli MinE function” (Open Biology, 2020).

For one series, the target named is T1, Strep-MinD^D40AΔ10 (E. coli, UniProt P0AEZ3 1-260, D40A).
T1 construct: MinD, E. coli, with D40A and lacking the last 10 amino acids; the reverse primer anneals 33 nucleotides upstream of the stop codon of minD; Cloned into the pET28a backbone without the region between NcoI and HindIII, so without the His and T7 tags; also called MinD^D40Δ10; source: E. coli Rosetta (DE3) pLysS, purified (Strep-Tactin cartridge, desalting); not shown: Strep-tag, N-terminal, kept
T1 sequence (looked up): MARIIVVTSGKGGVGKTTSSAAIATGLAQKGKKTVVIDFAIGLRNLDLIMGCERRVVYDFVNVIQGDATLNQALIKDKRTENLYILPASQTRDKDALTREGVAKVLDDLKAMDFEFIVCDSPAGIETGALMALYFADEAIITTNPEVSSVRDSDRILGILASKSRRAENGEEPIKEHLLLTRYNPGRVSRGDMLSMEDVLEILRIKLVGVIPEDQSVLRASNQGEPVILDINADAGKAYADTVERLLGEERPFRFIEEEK
The series is described as follows: pull-down; about 5 µM His-MinE or His-MinE-eYFP on MagneHis beads with 3 µM Strep-MinD^D40AΔ10, with ATP (1 mM), 5 mM MgCl2, 50 mM HEPES-KOH pH 7.25, 150 mM KCl, 10% glycerol, room temperature, 15 min; eluted with imidazole. To be noted: both partners purified.

Series [1] deals with the molecule itself. Briefly: SEC; Superdex 200, 13 µM protein injected, 50 mM HEPES-KOH pH 7.25, 150 mM KCl, 0.1 mM EDTA, 10% glycerol, room temperature; size judged against BSA (66 kDa) and carbonic anhydrase (29 kDa). Background: Size exclusion chromatography separates by hydrodynamic size, large species first.

B1: His-MinE (natural protein, E. coli, UniProt P0A734 1-88, looked up)
chain: MALLDFFLSRKKNTANIAKERLQIIVAERRRSDAEPHYLPQLRKDILEVICKYVQIDPEMVTVQLEQKDGDISILELNVTLPEAEELK
notes: MinE, E. coli; the minE gene amplified from the MG1655 genome into pET28a (BamHI/HindIII); 88 amino acids; The same construct as m1, with the His-tag kept for the pull-down; source: E. coli Rosetta (DE3) pLysS, purified (IMAC nickel column, desalting); not shown: His6, N-terminal, kept
With B1, the binding result with Strep-MinD^D40AΔ10 is “binds”.

B2: MinE (untagged MinE; His-tag removed with thrombin) (natural protein, E. coli, UniProt P0A734 1-88, looked up)
chain: B1 chain
notes: MinE, E. coli; the minE gene amplified from the MG1655 genome into pET28a (BamHI/HindIII); 88 amino acids; Eluted as a tetramer in SEC; also called wild-type; source: E. coli Rosetta (DE3) pLysS, purified (IMAC nickel column, desalting), His-tag removed with thrombin; not shown: His6, N-terminal, cleaved
Take B2: the stoichiometry N (in general, a count of units in the complex or per binding partner) in series [1] stood at 4.
